A word on the EC50: it is the concentration giving half of the maximal effect.

One experiment has as its target T1, monkey CD3 (monkey).
T1 construct: whole, on cells; also called CD3 on monkey CD3 positive T cells
The experiment is described as follows: flow cytometry on monkey CD3 positive T cells. For orientation: In flow cytometry, cells or beads pass a laser one at a time.

The target of another experiment is T2, Human CD38 (human, UniProt P28907 1-300).
T2 construct: whole, on cells; the assays used the protein on tumor cells
Nature of the experiment: flow cytometry on CD38 positive tumor cells (MM.1S or RPMI 8226).

The target of experiment [1] is T3, human CD3 (human, UniProt P07766 23-207).
T3 construct: whole, on cells; Assays used CD3 positive T cells (or CIK cells) from human blood; also called Human CD3ϵ; CD3 on human CD3 positive T cells
The experiment is described as follows: flow cytometry on human CD3 positive T cells.

Experiment [2] concerns the target T3, human CD3. The experiment is described as follows: cell-based or functional assay.
For experiment [3], the target named is T3, human CD3. Nature of the experiment: cell-based or functional assay. This is another data set of the same source.

B1: Y150-F9-7 (bispecific antibody, human IgG1, lambda)
scFv: QVQLVESGGGVVQPGRSLRLSCAASGFTFSTYAMNWVRQAPGKGLEWVARIRSKYNNYATYYADSVKDRFTISRDDSKNTLYLQMNSLRAEDTAVYYCARHGNFGNSYVSWFAYWGQGTLVTVSSGGGGSGGGGSGGGGSQTVVTQEPSLTVSPGGTVTLTCRSSTGAVTTSNYANWVQQKPGQAPRGLIGGTNKRAPGVPARFSGSLLGGKAALTLSGVQPEDEAEYYCALWYSNLWVFGGGTKVEIKGGGGSDKTHTCPPCPAPEFEGGPSVFLFPPKPKDTLMISRTPEVTCVVVDVSHEDPEVKFNWYVDGVEVHNAKTKPREEQYNSTYRVVSVLTVLHQDWLNGKEYKCKVSNKALPASIEKTISKAKGQPREPQVCTLPPSRDELTKNQVSLSCAVKGFYPSDIAVEWESNGQPENNYKTTPPVLDSDGSFFLVSKLTVDKSRWQQGNVFSCSVMHEALHNHYTQKSLSLSPGK
heavy: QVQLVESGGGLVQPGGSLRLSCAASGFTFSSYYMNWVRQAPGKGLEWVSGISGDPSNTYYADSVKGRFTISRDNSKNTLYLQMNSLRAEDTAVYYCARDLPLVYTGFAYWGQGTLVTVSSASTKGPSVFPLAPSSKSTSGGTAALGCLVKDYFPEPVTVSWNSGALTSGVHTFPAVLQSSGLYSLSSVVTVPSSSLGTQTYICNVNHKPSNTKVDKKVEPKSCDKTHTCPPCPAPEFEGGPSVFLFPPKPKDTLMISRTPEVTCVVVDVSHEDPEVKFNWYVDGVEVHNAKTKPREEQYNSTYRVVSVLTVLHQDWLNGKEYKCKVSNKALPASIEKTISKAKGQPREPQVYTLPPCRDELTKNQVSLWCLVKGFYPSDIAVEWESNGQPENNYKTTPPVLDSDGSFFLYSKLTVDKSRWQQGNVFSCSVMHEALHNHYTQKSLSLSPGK
light: DIELTQPPSVSVAPGQTARISCSGDNLRHYYVYWYQQKPGQAPVLVIYGDSKRPSGIPERFSGSNSGNTATLTISGTQAEDEADYYCQTYTGGASLVFGGGTKLTVLGQPKAAPSVTLFPPSSEELQANKATLVCLISDFYPGAVTVAWKADSSPVKAGVETTTPSKQSNNKYAASSYLSLTPEQWKSHRSYSCQVTHEGSTVEKTVAPTECS
As for B1, the EC50 worked out at 422 nM with monkey CD3, 103 nM with Human CD38 and 426 nM with human CD3 [1].

B2: Y150-F9-6 (bispecific antibody, human IgG1, lambda)
scFv: EVQLVESGGGLVQPKGSLKLSCAASGFTFNTYAMNWVRQAPGKGLEWVARIRSKYNNYATYYADSVKDRFTISRDDSQSILYLQMNNLKTEDTAMYYCVRHGNFGNSYVSWFAYWGQGTLVTVSSGGGGSGGGGSGGGGSQAVVTQESALTTSPGETVTLTCRSSTGAVTTSNYANWVQEKPDHLFTGLIGGTNKRAPGVPARFSGSLIGDKAALTITGAQTEDEAIYFCALWYSNLWVFGGGTKLTVLGDGDGSDKTHTCPPCPAPEFEGGPSVFLFPPKPKDTLMISRTPEVTCVVVDVSHEDPEVKFNWYVDGVEVHNAKTKPREEQYNSTYRVVSVLTVLHQDWLNGKEYKCKVSNKALPASIEKTISKAKGQPREPQVCTLPPSRDELTKNQVSLSCAVKGFYPSDIAVEWESNGQPENNYKTTPPVLDSDGSFFLVSKLTVDKSRWQQGNVFSCSVMHEALHNHYTQKSLSLSPGK
heavy: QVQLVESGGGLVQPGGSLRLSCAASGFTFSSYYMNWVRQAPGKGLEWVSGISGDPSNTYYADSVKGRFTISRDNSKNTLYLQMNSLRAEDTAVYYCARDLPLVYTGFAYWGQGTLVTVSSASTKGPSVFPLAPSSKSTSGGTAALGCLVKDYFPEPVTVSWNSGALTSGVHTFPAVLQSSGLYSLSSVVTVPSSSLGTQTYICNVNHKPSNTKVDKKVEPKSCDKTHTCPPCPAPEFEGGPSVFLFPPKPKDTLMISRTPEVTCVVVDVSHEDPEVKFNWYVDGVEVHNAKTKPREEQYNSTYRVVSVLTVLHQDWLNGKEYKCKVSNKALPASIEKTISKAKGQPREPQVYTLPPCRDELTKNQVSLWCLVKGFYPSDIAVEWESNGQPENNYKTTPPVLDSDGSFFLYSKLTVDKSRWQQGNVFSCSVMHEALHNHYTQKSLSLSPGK
light: DIELTQPPSVSVAPGQTARISCSGDNLRHYYVYWYQQKPGQAPVLVIYGDSKRPSGIPERFSGSNSGNTATLTISGTQAEDEADYYCQTYTGGASLVFGGGTKLTVLGQPKAAPSVTLFPPSSEELQANKATLVCLISDFYPGAVTVAWKADSSPVKAGVETTTPSKQSNNKYAASSYLSLTPEQWKSHRSYSCQVTHEGSTVEKTVAPTECS
notes: Comparative: anti-CD38 (MOR) Fab arm and anti-CD3 scFv (SP34)-Fc fusion peptide; 150 is used
Consider B2, for which the values for the EC50 in the experiment with monkey CD3, with Human CD38 and in the experiment with human CD3 [1] were 130 nM, 27.1 nM and 111 nM, respectively.

B3: Y150-F9-11 (bispecific antibody, human IgG1, kappa)
scFv: QVQLVESGGGVVQPGRSLRLSCAASGFTFSTYAMNWVRQAPGKGLEWVARIRSKYNNYATYYADSVKDRFTISRDDSKNTLYLQMNSLRAEDTAVYYCARHGNFGNSYVSWFAYWGQGTLVTVSSGGGGSGGGGSGGGGSQTVVTQEPSLTVSPGGTVTLTCRSSTGAVTTSNYANWVQQKPGQAPRGLIGGTNKRAPGVPARFSGSLLGGKAALTLSGVQPEDEAEYYCALWYSNLWVFGGGTKVEIKGRGRGSDKTHTCPPSPAPPVAGPSVFLFPPKPKDTLMISRTPEVTCVVVDVSHEDPEVQFNWYVDGVEVHNAKTKPREEQFNSTFRVVSVLTVVHQDWLNGKEYKCKVSNKGLPAPIEKTISKTKGQPREPQVCTLPPSRDELTKNQVSLSCAVKGFYPSDIAVEWESNGQPENNYKTTPPVLDSDGSFFLVSKLTVDKSRWQQGNVFSCSVMHEALHNHYTQKSLSLSPGK
heavy: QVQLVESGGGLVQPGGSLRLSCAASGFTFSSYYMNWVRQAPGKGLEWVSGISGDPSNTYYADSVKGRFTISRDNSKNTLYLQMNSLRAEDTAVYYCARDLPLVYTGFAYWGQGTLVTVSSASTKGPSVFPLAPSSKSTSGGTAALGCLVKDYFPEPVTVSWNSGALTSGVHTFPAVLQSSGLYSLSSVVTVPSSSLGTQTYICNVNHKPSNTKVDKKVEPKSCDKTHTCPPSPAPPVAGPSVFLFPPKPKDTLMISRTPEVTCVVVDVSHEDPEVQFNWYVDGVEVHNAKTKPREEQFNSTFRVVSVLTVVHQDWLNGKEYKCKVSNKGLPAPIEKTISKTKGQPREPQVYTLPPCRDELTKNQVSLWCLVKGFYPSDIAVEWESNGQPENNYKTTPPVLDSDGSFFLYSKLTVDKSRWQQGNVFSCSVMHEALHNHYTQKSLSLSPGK
light: DIELTQPPSVSVAPGQTARISCSGDNLRHYYVYWYQQKPGQAPVLVIYGDSKRPSGIPERFSGSNSGNTATLTISGTQAEDEADYYCQTYTGGASLVFGGGTKLTVLRTVAAPSVFIFPPSDEQLKSGTASVVCLLNNFYPREAKVQWKVDNALQSGNSQESVTEQDSKDSTYSLSSTLTLSKADYEKHKVYACEVTHQGLSSPVTKSFNRGEC
notes: Anti-CD38 (MOR) Fab arm with CL Lc1 and anti-CD3 scFv (VH2a/VL5)-Fc fusion peptide
Take B3: the “EC50 values of T-cell activation (CD3 and CD69 dual positive cells; human PBMC with MC/CAR target cells 5:1, 48 h)” value in the experiment with human CD3 [2] came out at 0.0835 nM. Further, the EC50 with monkey CD3 is 461 nM; in the experiment with Human CD38, 106 nM; in the experiment with human CD3 [1] it was 437 nM.

B4: MS-hCD3-IC15 (bispecific antibody, human IgG1, kappa, N297Q)
scFv: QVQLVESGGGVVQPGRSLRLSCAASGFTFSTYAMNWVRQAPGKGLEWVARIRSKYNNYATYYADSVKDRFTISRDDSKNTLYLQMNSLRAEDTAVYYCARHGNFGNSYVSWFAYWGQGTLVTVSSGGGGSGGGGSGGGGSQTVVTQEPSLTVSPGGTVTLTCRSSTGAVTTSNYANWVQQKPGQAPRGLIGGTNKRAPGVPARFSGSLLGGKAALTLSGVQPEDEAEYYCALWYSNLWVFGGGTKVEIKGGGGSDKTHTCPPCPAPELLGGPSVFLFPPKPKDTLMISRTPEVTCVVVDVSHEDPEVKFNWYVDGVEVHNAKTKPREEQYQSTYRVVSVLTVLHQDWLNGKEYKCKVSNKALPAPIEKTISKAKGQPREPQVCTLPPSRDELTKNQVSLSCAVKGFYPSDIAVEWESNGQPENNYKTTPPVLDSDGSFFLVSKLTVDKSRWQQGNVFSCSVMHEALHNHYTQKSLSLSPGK
heavy: EVKLDETGGGLVQPGRPMKLSCVASGFTFSDYWMNWVRQSPEKGLEWVAQIRNKPYNYETYYSDSVKGRFTISRDDSKSSVYLQMNNLRVEDMGIYYCTGSYYGMDYWGQGTSVTVSSASTKGPSVFPLAPSSKSTSGGTAALGCLVKDYFPEPVTVSWNSGALTSGVHTFPAVLQSSGLYSLSSVVTVPSSSLGTQTYICNVNHKPSNTKVDKKVEPKSCDKTHTCPPCPAPELLGGPSVFLFPPKPKDTLMISRTPEVTCVVVDVSHEDPEVKFNWYVDGVEVHNAKTKPREEQYQSTYRVVSVLTVLHQDWLNGKEYKCKVSNKALPAPIEKTISKAKGQPREPQVYTLPPCRDELTKNQVSLWCLVKGFYPSDIAVEWESNGQPENNYKTTPPVLDSDGSFFLYSKLTVDKSRWQQGNVFSCSVMHEALHNHYTQKSLSLSPGK
light: DVVMTQTPLSLPVSLGDQASISCRSSQSLVHSNGNTYLRWYLQKPGQSPKVLIYKVSNRFSGVPDRFSGSGSGTDFTLKISRVEAEDLGVYFCSQSTHVPWTFGGGTKLEIKRTVAAPSVFIFPPSDEQLKSGTASVVCLLNNFYPREAKVQWKVDNALQSGNSQESVTEQDSKDSTYSLSSTLTLSKADYEKHKVYACEVTHQGLSSPVTKSFNRGEC
Turning to B4, the EC50 with monkey CD3 amounted to 378 nM; in the experiment with human CD3 [1] it was 194 nM. Moreover, the “Cytotoxicity EC50 against lung cancer cells H358 (human PBMC 10:1, 48 h); control with CD3 arm only, no tumor antigen arm” value in the experiment with human CD3 [3] is 0.172 mg/L.

B5: IC-2 (bispecific antibody, human IgG1, kappa)
scFv: EVQLVESGGGLVQPKGSLKLSCAASGFTFNTYAMNWVRQAPGKGLEWVARIRSKYNNYATYYADSVKDRFTISRDDSQSILYLQMNNLKTEDTAMYYCVRHGNFGNSYVSWFAYWGQGTLVTVSSGGGGSGGGGSGGGGSQAVVTQESALTTSPGETVTLTCRSSTGAVTTSNYANWVQEKPDHLFTGLIGGTNKRAPGVPARFSGSLIGDKAALTITGAQTEDEAIYFCALWYSNLWVFGGGTKLTVLGDGDGSDKTHTCPPCPAPEFEGGPSVFLFPPKPKDTLMISRTPEVTCVVVDVSHEDPEVKFNWYVDGVEVHNAKTKPREEQYNSTYRVVSVLTVLHQDWLNGKEYKCKVSNKALPASIEKTISKAKGQPREPQVCTLPPSRDELTKNQVSLSCAVKGFYPSDIAVEWESNGQPENNYKTTPPVLDSDGSFFLVSKLTVDKSRWQQGNVFSCSVMHEALHNHYTQKSLSLSPGK
heavy: EVKLDETGGGLVQPGRPMKLSCVASGFTFSDYWMNWVRQSPEKGLEWVAQIRNKPYNYETYYSDSVKGRFTISRDDSKSSVYLQMNNLRVEDMGIYYCTGSYYGMDYWGQGTSVTVSSASTKGPSVFPLAPSSKSTSGGTAALGCLVKDYFPEPVTVSWNSGALTSGVHTFPAVLQSSGLYSLSSVVTVPSSSLGTQTYICNVNHKPSNTKVDKKVEPKSCDKTHTCPPCPAPEFEGGPSVFLFPPKPKDTLMISRTPEVTCVVVDVSHEDPEVKFNWYVDGVEVHNAKTKPREEQYNSTYRVVSVLTVLHQDWLNGKEYKCKVSNKALPASIEKTISKAKGQPREPQVYTLPPCRDELTKNQVSLWCLVKGFYPSDIAVEWESNGQPENNYKTTPPVLDSDGSFFLYSKLTVDKSRWQQGNVFSCSVMHEALHNHYTQKSLSLSPGK
light: DVVMTQTPLSLPVSLGDQASISCRSSQSLVHSNGNTYLRWYLQKPGQSPKVLIYKVSNRFSGVPDRFSGSGSGTDFTLKISRVEAEDLGVYFCSQSTHVPWTFGGGTKLEIKRTVAAPSVFIFPPSDEQLKSGTASVVCLLNNFYPREAKVQWKVDNALQSGNSQESVTEQDSKDSTYSLSSTLTLSKADYEKHKVYACEVTHQGLSSPVTKSFNRGEC
notes: Comparative: 4420 Fab arm and anti-CD3 scFv (SP34)-Fc fusion peptide, CH2 FES
As to B5, the EC50 was 312 nM with monkey CD3 and 172 nM with human CD3 [1].

B6: IC-3 (bispecific antibody, human IgG1, kappa, N297Q)
scFv: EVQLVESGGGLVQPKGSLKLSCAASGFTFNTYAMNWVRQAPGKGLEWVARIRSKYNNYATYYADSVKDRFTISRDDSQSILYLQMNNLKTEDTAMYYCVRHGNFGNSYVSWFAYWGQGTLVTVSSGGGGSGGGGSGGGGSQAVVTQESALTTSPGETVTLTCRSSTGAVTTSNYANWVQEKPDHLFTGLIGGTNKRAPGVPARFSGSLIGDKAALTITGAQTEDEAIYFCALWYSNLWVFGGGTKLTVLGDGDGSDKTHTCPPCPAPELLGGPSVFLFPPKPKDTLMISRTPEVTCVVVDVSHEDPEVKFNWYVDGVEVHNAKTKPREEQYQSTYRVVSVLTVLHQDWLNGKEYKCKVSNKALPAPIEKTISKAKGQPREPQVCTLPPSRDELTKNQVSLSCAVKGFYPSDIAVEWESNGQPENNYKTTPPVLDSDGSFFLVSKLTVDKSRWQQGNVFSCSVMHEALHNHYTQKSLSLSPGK
heavy: EVKLDETGGGLVQPGRPMKLSCVASGFTFSDYWMNWVRQSPEKGLEWVAQIRNKPYNYETYYSDSVKGRFTISRDDSKSSVYLQMNNLRVEDMGIYYCTGSYYGMDYWGQGTSVTVSSASTKGPSVFPLAPSSKSTSGGTAALGCLVKDYFPEPVTVSWNSGALTSGVHTFPAVLQSSGLYSLSSVVTVPSSSLGTQTYICNVNHKPSNTKVDKKVEPKSCDKTHTCPPCPAPELLGGPSVFLFPPKPKDTLMISRTPEVTCVVVDVSHEDPEVKFNWYVDGVEVHNAKTKPREEQYQSTYRVVSVLTVLHQDWLNGKEYKCKVSNKALPAPIEKTISKAKGQPREPQVYTLPPCRDELTKNQVSLWCLVKGFYPSDIAVEWESNGQPENNYKTTPPVLDSDGSFFLYSKLTVDKSRWQQGNVFSCSVMHEALHNHYTQKSLSLSPGK
light: DVVMTQTPLSLPVSLGDQASISCRSSQSLVHSNGNTYLRWYLQKPGQSPKVLIYKVSNRFSGVPDRFSGSGSGTDFTLKISRVEAEDLGVYFCSQSTHVPWTFGGGTKLEIKRTVAAPSVFIFPPSDEQLKSGTASVVCLLNNFYPREAKVQWKVDNALQSGNSQESVTEQDSKDSTYSLSSTLTLSKADYEKHKVYACEVTHQGLSSPVTKSFNRGEC
notes: Comparative: 4420 Fab arm and anti-CD3 scFv (SP34)-Fc fusion peptide, CH2 N297Q
With B6, the figures for the EC50 with monkey CD3 and in the experiment with human CD3 [1] were 285 nM and 155 nM, respectively.

Source of the values: patent US20220041721A1 (WUHAN YZY BIOPHARMA, published 2022).
